From patent US9260754B2, “Connexin mutation detection for lymphatic variation and disease” (University of Pittsburgh—Of the Commonwealth System of …, priority 2010, dated 2016)
“Also recorded” adds a separate entry of the source.

B1: G146S: Cx47 missense mutant G146S (436G>A), intracellular loop, construct expressed in HeLa cells or LECs (protein, listed as Homo sapiens)
chain: MSWSFLTRLLEEIHNHSTFVGKVWLTVLVVFRIVLTAVGGEAIYSDEQAKFTCNTRQPGCDNVCYDAFAPLSHVRFWVFQIVVISTPSVMYLGYAVHRLARASEQERRRALRRRPGPRRAPRAHLPPPHAGWPEPADLGEEEPMLSLGEEEEEEETGAAEGAGEEAEEAGAEEACTKAVGADGKAAGTPGPTGQHDGRRRIQREGLMRVYVAQLVARAAFEVAFLVGQYLLYGFEVRPFFPCSRQPCPHVVDCFVSRPTEKTVFLLVMYVVSCLCLLLNLCEMAHLGLGSAQDAVRGRRGPPASAPAPAPRPPPCAFPAAAAGLACPPDYSLVVRAAERARAHDQNLANLALQALRDGAAAGDRDRDSSPCVGLPAASRGPPRAGAPASRTGSATSAGTVGEQGRPGTHERPGAKPRAGSEKGSASSRDGKTTVWI
B2: WT-hCx47: human wild type Cx47 construct in bicistronic pIRES2-EGFP vector, expressed in HeLa cells or LECs (protein, UniProt Q5T442 1-439, looked up)
Gap junction gamma-2 protein: MTNMSWSFLTRLLEEIHNHSTFVGKVWLTVLVVFRIVLTAVGGEAIYSDEQAKFTCNTRQPGCDNVCYDAFAPLSHVRFWVFQIVVISTPSVMYLGYAVHRLARASEQERRRALRRRPGPRRAPRAHLPPPHAGWPEPADLGEEEPMLGLGEEEEEEETGAAEGAGEEAEEAGAEEACTKAVGADGKAAGTPGPTGQHDGRRRIQREGLMRVYVAQLVARAAFEVAFLVGQYLLYGFEVRPFFPCSRQPCPHVVDCFVSRPTEKTVFLLVMYVVSCLCLLLNLCEMAHLGLGSAQDAVRGRRGPPASAPAPAPRPPPCAFPAAAAGLACPPDYSLVVRAAERARAHDQNLANLALQALRDGAAAGDRDRDSSPCVGLPAASRGPPRAGAPASRTGSATSAGTVGEQGRPGTHERPGAKPRAGSEKGSASSRDGKTTVWI

Assays:
[1] = system: HeLa cells; assay: Wound assay (proliferation/migration) in confluent transfected HeLa cells; type: cell-based, human; conditions: for wound assay: fraction of original wound in HeLa cell monolayer after 24 hrs, mean ± SEM
Protocol: The wound assay, a measure of proliferation/migration, was performed using differential interference contrast time lapse of over 24 hrs using confluent transfected HeLa cells. Analysis was done using TScratch (Geback T, et al. TScratch: a novel and simple software tool for automated analysis of monolayer wound healing assays. Biotechniques 2009; 46:265-74), mean±SEM of at least 10 positions along wound; the scrape width was normalized to the first image for each position. In all cases a two tailed student's T test was applied with p<0.05 considered significant.

[2] = system: HeLa cells; assay: Cx47 gap junction plaque formation by immunofluorescent confocal microscopy in transfected HeLa cells; type: cell-based, human; conditions: near confluent transfected HeLa cells
Protocol: Human neonatal foreskin was collected anonymously as discarded tissue according to an IRB protocol. Samples were collected immediately after harvest in DMEM, then fixed in 2% paraformaldehyde for 2 hrs, then stored in 30% sucrose in 1×PBS overnight for cryosectioning, and sectioned in 6 μm slices at −30° C. Transfected (stable and transient) and untransfected HeLa cells were grown to near confluence in coverslip bottom dishes. All cells were rinsed with PBS and fixed with 2% paraformaldehyde. Subsequently, tissue and HeLa cells were processed similarly: following permeabilization with 0.1% Triton X, cells were blocked with 2% BSA. A human Cx47 antibody (ab) was obtained from the S. Scherer laboratory: polyclonal rabbit against amino acids 344-399 in the cytoplasmic C-terminal tail; we used human CNS tissue and positive oligodendrocyte staining as a positive control and primary antibody delete and rabbit IgG as negative controls (data not shown). Cx47 ab was diluted in 0.5% BSA in a 1:200 ratio, applied to cells and incubated at RT for one hour. Mouse monoclonal Proxl (Chemicon) was used as a lymphatic marker for the foreskin samples. Cells were incubated with the secondary abs (Donkey Anti-Rabbit Cy5 and Donkey Anti-Mouse Cy3; Invitrogen) for one hour at RT and washed; Draq5 was used as a nuclear marker. HeLa images were acquired with an inverted Olympus Fluoview 1000 Confocal Microscope 100× oil, 1.4 NA objective. Foreskin images were acquired on a Zeiss Meta LSM 510 inverted confocal microscope with 40× oil, 1.3 N.A. objective. LECs (primary human microvascular adult dermal lymphatics; Lonza) were grown in fibronectin coated coverslip bottom MatTeks dishes in EGM™-2 MV—Microvascular Endothelial Cell Medium-2 (Lonza Inc.) to approximately 80% confluence, and prepared similarly but a commercially available (AbCam) Cx47 ab, polyclonal rabbit against amino acids 41-70 in the human sequence was used along with Drag 5 nuclear marker and phalloidin to mark f-actin.
Immunofluorescence microscopy determines the presence or absence of Cx47 gap junction plaques when the constructs are transiently expressed in HeLa cells. Cx plaques reflect a physiologic accumulation of Cx channels in the cell membrane between cells (tens to thousands of channels); thus plaques are indicative of normal trafficking and gap junction formation at the cell membrane.
Immunofluorescence microscopy determines the presence or absence of Cx47 gap junction plaques when the constructs are transiently expressed in HeLa cells. A human Cx47 antibody was obtained: polyclonal rabbit against amino acids 344-399 in the cytoplasmic C-terminal tail (Orthmann-Murphy J L, et al. Mol Cell Neurosci 2007; 34:629-41); we used human CNS tissue and positive oligodendrocyte staining as a positive control and primary antibody delete as a negative control (data not shown). Cultured HeLa cells were routinely fixed and stained with the primary antibodies against Cx47, along with a nuclear marker, and transfected cells were identified by their EGFP signal. Plaques were imaged using an Olympus Fluoview 1000 confocal microscope, 100× oil objective.

[3] = system: Adult human dermal lymphatic microvascular endothelial cells; assay: Lucifer yellow microinjection dye spread in lymphatic endothelial cells expressing mutant constructs; type: cell-based; conditions: Dye spread to tiers of LECs after 2 min; Lucifer yellow microinjection; mean ± SEM
Protocol: Adult human dermal lymphatic microvascular endothelial cells were cultured in EGM™-2 MV (both from Lonza). Cells were electroporated with 2 μg cDNA of the EGFP tagged mutant constructs and then selected with G418 as described above. Cells were microinjected using a combination (1:4 ratio) of 70 kd Texas Red dextran (Invitrogen) to mark injected cell for reference and Lucifer yellow, a known gap junction permeable dye (m.w. 443, −2 charge), to assess change in extent of spread (Abbaci M, et al. Advantages and limitations of commonly used methods to assay the molecular permeability of gap junctional intercellular communication. Biotechniques 2008; 45:33-52, 6-62). All cells were injected using constant conditions and cells were scored for dye spread in tiers from reference cell, using constant exposure time and thresholding, and were imaged using a Nikon TE2000 with temperature controlled motorized stage and Qlmaging Retiga CCD camera. Images were obtained using differential interference contrast (DIC) and standard filters for EGFP (identify expression of mutation), DAPI (for Lucifer yellow) and dsRed (for dextran) preinjection, immediately post-injection and 2 min after injection. Results were calculated as mean SEM and statistical significance was determined in comparison to WT-hCx47-EGFP expressing cells using a Mann-Whitney Test.

[4] = system: HeLa cells; assay: Calcein AM scrape loading and dye transfer in stably transfected HeLa cells; type: cell-based, human; conditions: for dye transfer: ratio, rate normalized to untransfected HeLa cells, Calcein AM scrape loading, 10 min, stably transfected HeLa, mean ± SEM
Protocol: A confluent monolayer of HeLa cells (untransfected and stably transfected, as described above) was grown in DMEM with 10% FBS in coverslip bottom plates (MatTek) and placed in a temperature controlled microincubator (Zeiss). A 10×, 0.4 NA objective was used to collect DIC and GFP images every 5 seconds for 10 minutes without changing media. A pipette loaded with 1 μl Calcein AM (Invitrogen), a gap junction permissive dye with molecular weight 662, −4 charge when intracellular and fluorescent, was used to create a scrape across the monolayer. At least 5 replicate dishes were analyzed on the same day, and WT hCx47 expressing HeLas were grown and assayed as a concurrent control; assays were performed on at least 2 different batches of HeLa cells on different days. Quantitation of the rate of spread was calculated using MetaMorph, by obtaining integrated intensity at the 10th time point, within the first minute of imaging, and then at the endpoint at 10 min, and subtracting the initial intensity from that at the endpoint. Results are reported as mean and SEM, and tested for significance (p<0.05) using an unpaired Student's t-test.
In these mutants, Cx47 appears to concentrate in the ER. Unlike electrophysiologic measurements, dye transfer assays are used to assess GJIC of relatively large molecules. We also found significant differences in GJIC in HeLa cells overexpressing Cx47 lymphedema associated mutations by assessing rates of dye transfer in a conventional scrape assay using stably transfected HeLa cells normalized to rates in untransfected HeLa cells (FIG. 7D; Table 3). […] It is not surprising that the mutants show some differences in GJIC between the electrophysiologic and dye transfer assays given that they are designed to measure different kinds of transport and that Cx channel permeability is now believed to be governed by factors including molecular shape, charge and size, in addition to channel conformation and composition.

Molecule	wound closure compared to WT-hCx47-EGFP transfected cells (in words) ([1]; HeLa cells, cell scratch assay)	wound assay [1]	Cx47 plaque formation (in words) [2]	LEC spread [3]	dye transfer [4]	Calcein AM dye transfer compared to WT-hCx47 transfected HeLa cells (in words) ([4]; stably transfected HeLa cells, scrape assay)	Cx47 plaque formation (in words) ([2]; listed as WT-hCx47-EGFP)
B1	faster wound closure; also recorded: more rapid closure	0.62	Cx47 intercellular plaques	2.0 tiers	1.05	less	–
B2	–	0.72	Presence	1.4 tiers	1.80	–	Cx47 intercellular plaques
